Measurements published in the supplement of paper PMC9732359.
± gives the uncertainty stated by the source.

Assay: protein stability index of a GFP-peptide fusion (yeast GPS) (PSI 1-4); higher = more stable; sorted into four equal gates, so the index is relative within each strain
How it was run: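 Tiled yeast protein peptides of 17 residues were each joined downstream of GFP, on plasmids that also express Cherry. The pooled library was maintained in yeast, and mid-log cultures in leucine-free medium were sorted into four equal gates on the GFP/Cherry ratio. Plasmids from every gate were amplified by PCR and sequenced on Illumina, with barcodes linking reads to strains. The protein stability index of a peptide is its gate-number-weighted read frequency summed over the gates.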

Row | Sequence | protein stability index (doa10∆) | protein stability index (pdr5∆) | protein stability index (san1∆) | protein stability index (ubr1∆)
1 | IHIQETQEFSKNYTTET [SIR3] | 3.39 ± 0.1 | 3.15 ± 0.11 | 3.4 ± 0.16 | 3.31 ± 0.069
2 | IKTFLVDLTSSNFADSA [YDL116W/NUP84] | 2.3 ± 0.089 | 2.82 ± 0.094 | 2.78 ± 0.1 | 2.76 ± 0.069
3 | AVVQTVKGLLNTYKRLV [YJL039C/NUP192] | 1.8 ± 0.11 | 2.37 ± 0.085 | 1.92 ± 0.14 | 2.45 ± 0.083
4 | NNKITQLIAKNVANVSG [SIR3] | 1.7 ± 0.067 | 1.88 ± 0.063 | 2.07 ± 0.094 | 2.35 ± 0.054
5 | PELFESLGIAQPKGVIL [RPT6] | 2.56 ± 0.052 | 2.82 ± 0.069 | 2.46 ± 0.092 | 2.54 ± 0.061
6 | DVYASKVRLNASEREEL [PRP8] | 1.93 ± 0.062 | 2.22 ± 0.061 | 2.39 ± 0.072 | 1.78 ± 0.046
7 | DEVGRRSMLTVVRNMLA [YCG1] | 1.54 ± 0.077 | 2.09 ± 0.079 | 3.01 ± 0.13 | 1.52 ± 0.069
8 | KLSDNISICMILCGIQE [YDL116W/NUP84] | 2.23 ± 0.074 | 1.86 ± 0.083 | 2.62 ± 0.12 | 2.06 ± 0.11
9 | VNGFLNLGYCNDKLIVD [RPN1] | 3.32 ± 0.098 | 2.78 ± 0.067 | 2.89 ± 0.052 | 2.49 ± 0.079
10 | SSIQESLLSLVGHLSIL [ECM29] | 2.01 ± 0.045 | 1.75 ± 0.043 | 1.83 ± 0.053 | 1.6 ± 0.025
11 | PEQVYSLLLTNVIITGS [ARP7] | 1.36 ± 0.06 | 1.39 ± 0.047 | 1.17 ± 0.11 | 1.23 ± 0.046
12 | DDDDEDDDEIVMPVPNV [SKP1] | 3.3 ± 0.064 | 3.06 ± 0.099 | 3.08 ± 0.11 | 3.21 ± 0.11
13 | TNQDGLKFVKVRVRTTK [RPB2] | 2.42 ± 0.084 | 3.05 ± 0.12 | 3.3 ± 0.1 | 3.2 ± 0.088
14 | TPDATKIKAILESVGIE [RPP2A] | 2.31 ± 0.084 | 3.2 ± 0.16 | 3.08 ± 0.12 | 3.18 ± 0.063
15 | VMESGAKGCEVVVSGKL [RPS3] | 3.04 ± 0.23 | – | 3 ± 0.24 | –
16 | SAAMSIDKLSDVVMKAT [PRP8] | 2.46 ± 0.048 | 2.6 ± 0.046 | 2.45 ± 0.047 | 2.37 ± 0.042
17 | EKKLEDYCRILSDIETA [YGL172W/NUP49] | 1.75 ± 0.11 | 3.14 ± 0.09 | 2.67 ± 0.11 | 2.55 ± 0.089
18 | SKCLNLISDSNINNSSV [SWI3] | 1.94 ± 0.072 | 1.91 ± 0.065 | 1.6 ± 0.11 | 2.41 ± 0.039
19 | MLLLNIFISSDHEFVLI [YMR129W/POM152] | 1.64 ± 0.057 | 1.28 ± 0.055 | 1.32 ± 0.098 | 1.23 ± 0.057
20 | HWNLPGERIFNKIRNLE [SIR2] | 3.3 ± 0.098 | 3.23 ± 0.097 | 3.2 ± 0.056 | 3.29 ± 0.068
21 | EPFFLVTKITDMLLHKY [SRB8] | 2.86 ± 0.11 | 2.52 ± 0.088 | 2.88 ± 0.061 | 2.72 ± 0.083
22 | KRGEVVKIIRKSETSGR [RPB5] | 3.04 ± 0.082 | 3.17 ± 0.057 | 3.2 ± 0.064 | 3.05 ± 0.058
23 | VENYETSSAFFYQQVHK [SIR4] | 2.75 ± 0.04 | 2.57 ± 0.042 | 2.43 ± 0.045 | 2.52 ± 0.03
24 | TKTEALLSDVVSTSSGA [YJL041W/NSP1] | 2.73 ± 0.13 | 3.1 ± 0.2 | 2.75 ± 0.15 | –
25 | KKRRGSRIYKTIKVAGT [SNU114] | 1.6 ± 0.042 | 1.78 ± 0.045 | 1.61 ± 0.069 | 1.8 ± 0.043
26 | WTEKKGKNVINRERFIS [SMD2] | 2.54 ± 0.16 | 1.54 ± 0.066 | 1.11 ± 0.19 | 3.05 ± 0.087
27 | PYFPGGSIAMARVLFDD [CYT1] | 2.29 ± 0.14 | 1.88 ± 0.1 | 2.61 ± 0.11 | 2.69 ± 0.093

Row | Sequence | protein stability index (doa10∆) | protein stability index (pdr5∆) | protein stability index (san1∆) | protein stability index (ubr1∆)
28 | EHAKWGPAAAIEFEYDP [RPB3] | 2.54 ± 0.078 | 3.01 ± 0.074 | 2.36 ± 0.07 | 3.09 ± 0.075
29 | KKFGGKGARSRFQKSYR [RPS16A] | 3.29 ± 0.12 | 3.27 ± 0.097 | 3.27 ± 0.072 | 3.32 ± 0.079
30 | SHNFQNAIFQMESEEVP [PCI8] | 2.85 ± 0.059 | 3.07 ± 0.068 | 2.7 ± 0.049 | 3.07 ± 0.05
31 | NVIRSLEQEYRLILLLN [RMP1] | 1.44 ± 0.036 | 1.19 ± 0.022 | 1.29 ± 0.071 | 1.35 ± 0.038
32 | SPVSSVHTANFSERGSN [MED2] | 2.71 ± 0.083 | 2.82 ± 0.068 | 2.53 ± 0.072 | 2.86 ± 0.044
33 | TPNLWAEQPLPVSPLDI [RPS2] | 1.41 ± 0.045 | 2.07 ± 0.06 | 2.31 ± 0.056 | 1.58 ± 0.066
34 | TNGGLFGSGTQNNNTLG [YGR119C/NUP57] | 3.25 ± 0.11 | 2.91 ± 0.091 | 3.02 ± 0.069 | 3.08 ± 0.069
35 | RNLDSATLKEIKSIIEQ [SMC3] | 3.25 ± 0.078 | 3.51 ± 0.087 | 3.2 ± 0.066 | 3.21 ± 0.068
36 | GKALVHHYEECAERVKI [QCR6] | 3.47 ± 0.093 | 3.28 ± 0.1 | 3.25 ± 0.073 | 3.39 ± 0.074
37 | EALNLLKFFLVDENETV [LIN1] | 1.52 ± 0.06 | 1.52 ± 0.043 | 1.4 ± 0.12 | 1.14 ± 0.054
38 | EVRILPRQRMEEVVSND [PRP8] | 2.52 ± 0.11 | 2.73 ± 0.084 | 2.69 ± 0.064 | 2.57 ± 0.084
39 | SAVVGPNGSGKSNVIDS [SMC4] | 3.13 ± 0.049 | 2.87 ± 0.043 | 3.06 ± 0.06 | 2.84 ± 0.033
40 | CIECQPKAMTDTDNECV [HRT1] | 3.26 ± 0.097 | 3.25 ± 0.093 | 2.94 ± 0.11 | 3.32 ± 0.062
41 | NLSQENDNEGKHISASI [YAR002W/NUP60] | 3.04 ± 0.075 | 3.34 ± 0.06 | 3.13 ± 0.054 | 3.12 ± 0.044
42 | ALKNACNSIINKLGALK [RPB11] | 2.89 ± 0.29 | – | 2.95 ± 0.11 | 3.17 ± 0.15
43 | GDTVQFAEYIQANIQLY [PRE1] | 2.11 ± 0.065 | 2.31 ± 0.063 | 2.2 ± 0.064 | 2.04 ± 0.053
44 | RDDGKRELLVEGYGLRD [RPO31] | 2.4 ± 0.079 | 2.56 ± 0.072 | 2.72 ± 0.077 | 2.74 ± 0.068
45 | HETLARSSEEINSDNQN [RPN3] | 3.15 ± 0.26 | – | – | 3.16 ± 0.19
46 | PNEFMQFKSKEVEKAHP [PRP8] | 3.16 ± 0.08 | 3.37 ± 0.11 | 3.23 ± 0.052 | 3.25 ± 0.091
47 | SNIPRGSVIQTHIAESA [MCD1] | 2.81 ± 0.1 | 2.88 ± 0.084 | 2.62 ± 0.09 | 2.91 ± 0.051
48 | MEEEQQRQERLRQQQQQ [RPN10] | 3.4 ± 0.17 | 2.86 ± 0.25 | 3.37 ± 0.066 | 3.39 ± 0.085
49 | KYKQLLLKDDTYQLCVR [RPN3] | 1.46 ± 0.073 | 1.78 ± 0.29 | – | 1.6 ± 0.18
50 | TRSWRPPQAGDRSLADD [RPB8] | 3.1 ± 0.11 | 3.09 ± 0.16 | 3.32 ± 0.13 | 3.21 ± 0.11
51 | SWRNITNLSGGEKTLSS [SMC4] | 3.37 ± 0.13 | 3.21 ± 0.078 | 2.81 ± 0.098 | 3.01 ± 0.11
52 | KKEKLDSGEVDADGDID [DPB4] | 3.05 ± 0.15 | 3.4 ± 0.17 | 3.29 ± 0.12 | 3.36 ± 0.11
53 | YKTSKAAQDVWNRADNH [FAS1] | 2.96 ± 0.21 | 2.98 ± 0.17 | 1.71 ± 0.29 | –
